Experimental data published in paper PMC7367873, “Dissecting the sequence determinants for dephosphorylation by the catalytic subunits of phosphatases PP1 and PP2A” (Nature Communications, 2020).

Tests used:
[1] = system: GFP-14-3-3β and its binding proteins; experiment: GFP-14-3-3β co-IP with LC-MS/MS label-free quantification, untreated versus PP1c-treated; parameters: species or system human; conditions: label-free quantification, 3 replicates each
[2] = system: GFP-14-3-3β; experiment: GFP-14-3-3β co-IP with LC-MS/MS, untreated GFP-14-3-3β versus GFP control (14-3-3 interactome); format: binding, human; conditions: label-free quantification, 3 replicates each
[3] = GFP-14-3-3β co-IP LC-MS/MS, PP1 vs untreated, student's t-test
[4] = GFP-14-3-3β co-IP LC-MS/MS, untreated vs GFP, student's t-test

B1: KANK2 (protein, UniProt Q63ZY3 1-851, looked up)
KN motif and ankyrin repeat …: MAQVLHVPAPFPGTPGPASPPAFPAKDPDPPYSVETPYGYRLDLDFLKYVDDIEKGHTLRRVAVQRRPRLSSLPRGPGSWWTSTESLCSNASGDSRHSAYSYCGRGFYPQYGALETRGGFNPRVERTLLDARRRLEDQAATPTGLGSLTPSAAGSTASLVGVGLPPPTPRSSGLSTPVPPSAGHLAHVREQMAGALRKLRQLEEQVKLIPVLQVKLSVLQEEKRQLTVQLKSQKFLGHPTAGRGRSELCLDLPDPPEDPVALETRSVGTWVRERDLGMPDGEAALAAKVAVLETQLKKALQELQAAQARQADPQPQAWPPPDSPVRVDTVRVVEGPREVEVVASTAAGAPAQRAQSLEPYGTGLRALAMPGRPESPPVFRSQEVVETMCPVPAAATSNVHMVKKISITERSCDGAAGLPEVPAESSSSPPGSEVASLTQPEKSTGRVPTQEPTHREPTRQAASQESEEAGGTGGPPAGVRSIMKRKEEVADPTAHRRSLQFVGVNGGYESSSEDSSTAENISDNDSTENEAPEPRERVPSVAEAPQLRPAGTAAAKTSRQECQLSRESQHIPTAEGASGSNTEEEIRMELSPDLISACLALEKYLDNPNALTERELKVAYTTVLQEWLRLACRSDAHPELVRRHLVTFRAMSARLLDYVVNIADSNGNTALHYSVSHANFPVVQQLLDSGVCKVDKQNRAGYSPIMLTALATLKTQDDIETVLQLFRLGNINAKASQAGQTALMLAVSHGRVDVVKALLACEADVNVQDDDGSTALMCACEHGHKEIAGLLLAVPSCDISLTDRDGSTALMVALDAGQSEIASMLYSRMNIKCSFAPMSDDESPTSSSAEE
[1]; [3]
  Difference (log2), PP1 vs untreated: -0.5359 log2
[2]; [4]
  Difference (log2), untreated vs GFP: 1.477 log2

B2: UBTF (protein, UniProt P17480 1-764, looked up)
Nucleolar transcription …: MNGEADCPTDLEMAAPKGQDRWSQEDMLTLLECMKNNLPSNDSSKFKTTESHMDWEKVAFKDFSGDMCKLKWVEISNEVRKFRTLTELILDAQEHVKNPYKGKKLKKHPDFPKKPLTPYFRFFMEKRAKYAKLHPEMSNLDLTKILSKKYKELPEKKKMKYIQDFQREKQEFERNLARFREDHPDLIQNAKKSDIPEKPKTPQQLWYTHEKKVYLKVRPDATTKEVKDSLGKQWSQLSDKKRLKWIHKALEQRKEYEEIMRDYIQKHPELNISEEGITKSTLTKAERQLKDKFDGRPTKPPPNSYSLYCAELMANMKDVPSTERMVLCSQQWKLLSQKEKDAYHKKCDQKKKDYEVELLRFLESLPEEEQQRVLGEEKMLNINKKQATSPASKKPAQEGGKGGSEKPKRPVSAMFIFSEEKRRQLQEERPELSESELTRLLARMWNDLSEKKKAKYKAREAALKAQSERKPGGEREERGKLPESPKRAEEIWQQSVIGDYLARFKNDRVKALKAMEMTWNNMEKKEKLMWIKKAAEDQKRYERELSEMRAPPAATNSSKKMKFQGEPKKPPMNGYQKFSQELLSNGELNHLPLKERMVEIGSRWQRISQSQKEHYKKLAEEQQKQYKVHLDLWVKSLSPQDRAAYKEYISNKRKSMTKLRGPNPKSSRTTLQSKSESEEDDEEDEDDEDEDEEEEDDENGDSSEDGGDSSESSSEDESEDGDENEEDDEDEDDDEDDDEDEDNESEGSSSSSSSSGDSSDSDSN
[1]; [3]
  Difference (log2), PP1 vs untreated: -0.5334 log2
[2]; [4]
  Difference (log2), untreated vs GFP: 1.529 log2

B3: LMNA (protein, UniProt P02545 1-661, looked up)
Prelamin-A/C: METPSQRRATRSGAQASSTPLSPTRITRLQEKEDLQELNDRLAVYIDRVRSLETENAGLRLRITESEEVVSREVSGIKAAYEAELGDARKTLDSVAKERARLQLELSKVREEFKELKARNTKKEGDLIAAQARLKDLEALLNSKEAALSTALSEKRTLEGELHDLRGQVAKLEAALGEAKKQLQDEMLRRVDAENRLQTMKEELDFQKNIYSEELRETKRRHETRLVEIDNGKQREFESRLADALQELRAQHEDQVEQYKKELEKTYSAKLDNARQSAERNSNLVGAAHEELQQSRIRIDSLSAQLSQLQKQLAAKEAKLRDLEDSLARERDTSRRLLAEKEREMAEMRARMQQQLDEYQELLDIKLALDMEIHAYRKLLEGEEERLRLSPSPTSQRSRGRASSHSSQTQGGGSVTKKRKLESTESRSSFSQHARTSGRVAVEEVDEEGKFVRLRNKSNEDQSMGNWQIKRQNGDDPLLTYRFPPKFTLKAGQVVTIWAAGAGATHSPPTDLVWKAQNTWGCGNSLRTALINSTGEEVAMRKLVRSVTVVEDDEDEDGDDLLHHHHGSHCSSSGDPAEYNLRSRTVLCGTCGQPADKASASGSGAQVGGPISSGSSASSVTVTRSYRSVGGSGGGSFGDNLVTRSYLLGNSSPRTQSPQNC
[1]; [3]
  Difference (log2), PP1 vs untreated: -0.4623 log2
[2]; [4]
  Difference (log2), untreated vs GFP: -0.3549 log2

B4: WDR3 (protein, UniProt Q9UNX4 1-943, looked up)
WD repeat-containing protein 3: MGLTKQYLRYVASAVFGVIGSQKGNIVFVTLRGEKGRYVAVPACEHVFIWDLRKGEKILILQGLKQEVTCLCPSPDGLHLAVGYEDGSIRIFSLLSGEGNVTFNGHKAAITTLKYDQLGGRLASGSKDTDIIVWDVINESGLYRLKGHKDAITQALFLREKNLLVTSGKDTMVKWWDLDTQHCFKTMVGHRTEVWGLVLLSEEKRLITGASDSELRVWDIAYLQEIEDPEEPDPKKIKGSSPGIQDTLEAEDGAFETDEAPEDRILSCRKAGSIMREGRDRVVNLAVDKTGRILACHGTDSVLELFCILSKKEIQKKMDKKMKKARKKAKLHSSKGEEEDPEVNVEMSLQDEIQRVTNIKTSAKIKSFDLIHSPHGELKAVFLLQNNLVELYSLNPSLPTPQPVRTSRITIGGHRSDVRTLSFSSDNIAVLSAAADSIKIWNRSTLQCIRTMTCEYALCSFFVPGDRQVVIGTKTGKLQLYDLASGNLLETIDAHDGALWSMSLSPDQRGFVTGGADKSVKFWDFELVKDENSTQKRLSVKQTRTLQLDEDVLCVSYSPNQKLLAVSLLDCTVKIFYVDTLKFFLSLYGHKLPVICMDISHDGALIATGSADRNVKIWGLDFGDCHKSLFAHDDSVMYLQFVPKSHLFFTAGKDHKIKQWDADKFEHIQTLEGHHQEIWCLAVSPSGDYVVSSSHDKSLRLWERTREPLILEEEREMEREAEYEESVAKEDQPAVPGETQGDSYFTGKKTIETVKAAERIMEAIELYREETAKMKEHKAICKAAGKEVPLPSNPILMAYGSISPSAYVLEIFKGIKSSELEESLLVLPFSYVPDILKLFNEFIQLGSDVELICRCLFFLLRIHFGQITSNQMLVPVIEKLRETTISKVSQVRDVIGFNMAGLDYLKRECEAKSEVMFFADATSHLEEKKRKRKKREKLILTLT
[1]; [3]
  Difference (log2), PP1 vs untreated: -0.4911 log2
[2]; [4]
  Difference (log2), untreated vs GFP: 0.8072 log2

B5: TCF25 (protein, UniProt Q9BQ70 1-676, looked up)
Ribosome quality control …: MSRRALRRLRGEQRGQEPLGPGALHFDLRDDDDAEEEGPKRELGVRRPGGAGKEGVRVNNRFELINIDDLEDDPVVNGERSGCALTDAVAPGNKGRGQRGNTESKTDGDDTETVPSEQSHASGKLRKKKKKQKNKKSSTGEASENGLEDIDRILERIEDSTGLNRPGPAPLSSRKHVLYVEHRHLNPDTELKRYFGARAILGEQRPRQRQRVYPKCTWLTTPKSTWPRYSKPGLSMRLLESKKGLSFFAFEHSEEYQQAQHKFLVAVESMEPNNIVVLLQTSPYHVDSLLQLSDACRFQEDQEMARDLVERALYSMECAFHPLFSLTSGACRLDYRRPENRSFYLALYKQMSFLEKRGCPRTALEYCKLILSLEPDEDPLCMLLLIDHLALRARNYEYLIRLFQEWEAHRNLSQLPNFAFSVPLAYFLLSQQTDLPECEQSSARQKASLLIQQALTMFPGVLLPLLESCSVRPDASVSSHRFFGPNAEISQPPALSQLVNLYLGRSHFLWKEPATMSWLEENVHEVLQAVDAGDPAVEACENRRKVLYQRAPRNIHRHVILSEIKEAVAALPPDVTTQSVMGFDPLPPSDTIYSYVRPERLSPISHGNTIALFFRSLLPNYTMEGERPEEGVAGGLNRNQGLNRLMLAVRDMMANFHLNDLEAPHEDDAEGEGEWD
[1]; log2 difference, pairwise comparison PP1 vs untreated
  Difference (log2), PP1 vs untreated: 1.673
[2]; log2 difference, pairwise comparison untreated vs GFP
  Difference (log2), untreated vs GFP: -0.2721

B6: IGHMBP2 (protein, UniProt P38935 2-993, looked up)
DNA-binding protein SMUBP-2: ASAAVESFVTKQLDLLELERDAEVEERRSWQENISLKELQSRGVCLLKLQVSSQRTGLYGRLLVTFEPRRYGSAAALPSNSFTSGDIVGLYDAANEGSQLATGILTRVTQKSVTVAFDESHDFQLSLDRENSYRLLKLANDVTYRRLKKALIALKKYHSGPASSLIEVLFGRSAPSPASEIHPLTFFNTCLDTSQKEAVLFALSQKELAIIHGPPGTGKTTTVVEIILQAVKQGLKVLCCAPSNIAVDNLVERLALCKQRILRLGHPARLLESIQQHSLDAVLARSDSAQIVADIRKDIDQVFVKNKKTQDKREKSNFRNEIKLLRKELKEREEAAMLESLTSANVVLATNTGASADGPLKLLPESYFDVVVIDECAQALEASCWIPLLKARKCILAGDHKQLPPTTVSHKAALAGLSLSLMERLAEEYGARVVRTLTVQYRMHQAIMRWASDTMYLGQLTAHSSVARHLLRDLPGVAATEETGVPLLLVDTAGCGLFELEEEDEQSKGNPGEVRLVSLHIQALVDAGVPARDIAVVSPYNLQVDLLRQSLVHRHPELEIKSVDGFQGREKEAVILSFVRSNRKGEVGFLAEDRRINVAVTRARRHVAVICDSRTVNNHAFLKTLVEYFTQHGEVRTAFEYLDDIVPENYSHENSQGSSHAATKPQGPATSTRTGSQRQEGGQEAAAPARQGRKKPAGKSLASEAPSQPSLNGGSPEGVESQDGVDHFRAMIVEFMASKKMQLEFPPSLNSHDRLRVHQIAEEHGLRHDSSGEGKRRFITVSKRAPRPRAALGPPAGTGGPAPLQPVPPTPAQTEQPPREQRGPDQPDLRTLHLERLQRVRSAQGQPASKEQQASGQQKLPEKKKKKAKGHPATDLPTEEDFEALVSAAVKADNTCGFAKCTAGVTTLGQFCQLCSRRYCLSHHLPEIHGCGERARAHARQRISREGVLYAGSGTKNGSLDPAKRAQLQRRLDKKLSELSNQRTSRRKERGT
[1]; [3]
  Difference (log2), PP1 vs untreated: -0.3964 log2
[2]; [4]
  Difference (log2), untreated vs GFP: 0.7737 log2

B7: HNRNPH1 (protein, UniProt P31943 1-449, looked up)
Heterogeneous nuclear …: MMLGTEGGEGFVVKVRGLPWSCSADEVQRFFSDCKIQNGAQGIRFIYTREGRPSGEAFVELESEDEVKLALKKDRETMGHRYVEVFKSNNVEMDWVLKHTGPNSPDTANDGFVRLRGLPFGCSKEEIVQFFSGLEIVPNGITLPVDFQGRSTGEAFVQFASQEIAEKALKKHKERIGHRYIEIFKSSRAEVRTHYDPPRKLMAMQRPGPYDRPGAGRGYNSIGRGAGFERMRRGAYGGGYGGYDDYNGYNDGYGFGSDRFGRDLNYCFSGMSDHRYGDGGSTFQSTTGHCVHMRGLPYRATENDIYNFFSPLNPVRVHIEIGPDGRVTGEADVEFATHEDAVAAMSKDKANMQHRYVELFLNSTAGASGGAYEHRYVELFLNSTAGASGGAYGSQMMGGMGLSNQSSYGGPASQQLSGGYGGGYGGQSSMSGYDQVLQENSSDFQSNIA
[1]; [3]
  Difference (log2), PP1 vs untreated: -0.5044 log2
[2]; [4]
  Difference (log2), untreated vs GFP: 0.1701 log2
